# In patent US12448418B2, “Activatable therapeutic peptides and uses thereof” (priority 2022, dated 2025):
# B1: (ABD)2-(EEG)6-S12-(D)Pex-Cy7: Cy7-labelled model ABD-AMP conjugate, Table 8, SEQ ID NO: 158 (conjugate)
# chain: GLKEAKEKAIEELKKAGITSDYYFDLINKAKTVEGVNALKDEILKAGGGGSGGGGSGGGGSLKEAKEKAIEELKKAGITSDYYFDLINKAKTVEGVNALKDEILKAHHHHHHSPSTPPTPSPSTPPEEGEEGEEGEEGEEGEEGPLGLRSWGCGIGKFLKKAKKFGKAFVKILKKK
# modifications: Cy7 label; MISC_FEATURE - Chemically linked -(DBCO-Maleimide)-Azidoacetyl; SITE 155 MISC_FEATURE - D amino acid; MISC_FEATURE - D amino acid; SITE 176 MISC_FEATURE - linked to (Cy7)
# B2: (ABD)2-(EEG)6-S12-(D)Pex: model ABD-AMP conjugate, Table 8, SEQ ID NO: 157 (conjugate)
# chain: GLKEAKEKAIEELKKAGITSDYYFDLINKAKTVEGVNALKDEILKAGGGGSGGGGSGGGGSLKEAKEKAIEELKKAGITSDYYFDLINKAKTVEGVNALKDEILKAHHHHHHSPSTPPTPSPSTPPEEGEEGEEGEEGEEGEEGPLGLRSWGCGIGKFLKKAKKFGKAFVKILKK
# modifications: MISC_FEATURE - Chemically linked by a (DBCO-Maleimide)-Azidoacetyl; SITE 155 MISC_FEATURE - D amino acid; MISC_FEATURE - D amino acid
# What was measured:
# [1] = tested on: Pseudomonas aeruginosa PAO1; assay: Antibacterial assay (MIC) on PAO1, conjugate with and without thrombin pre-cleavage; format: cell-based; conditions: for fold activity masking in term of antibacterial activity on PAO1: peptide formulated into ABD-AMP conjugate, with and without thrombin pre-cleavage (FIGS. 6A and B)
# Source text: (§1) FIG. 3. In vitro evaluation of a model ABD-AMP conjugate. (A) Schematic of (ABD)2-(EEG)6-S12-(D)Pex. (B) Antibacterial assay on PAO1 treated with conjugate with and without thrombin pre-cleavage. OD600 indicates extent of bacteria viability. (C) MTS-based mammalian toxicity evaluation of L929 fibroblasts. (D) Hemolysis assay on mouse red blood cells.
# (§2) FIG. 6. Evaluation of activity masking for alternative AMPs and alternative application. Antibacterial assay on PAO1 treated with (A) (ABD)2-(EEG)6-512-POL7080 and (B) (ABD)2-(EEG)6-S12-Colistin with and without thrombin pre-cleavage. OD600 indicates extent of bacteria viability. (C) Evaluation of anticancer activity masking of (ABD)2-(EEG)6-S12-(D)Pex on HepG2 cell line by an MTS assay.
# (§3) To verify activity masking of our therapeutics, we evaluated antibacterial activity of our model ABD-AMP conjugate candidate ((ABD)2-(EEG)6-S12-(D)Pex) (FIG. 3A) with and without thrombin pre-activation on Pseudomonas aeruginosa PAO1. […] Overall, formulating AMP as an ABD-AMP conjugate provides an activity mask that can be activated with cleavage of the cleavable linker.
# To ensure broad application across different therapeutic peptides, we formulated additional AMPS (POL7080 and colistin) into ABD-AMP conjugates and evaluated the extent of activity masking. […] Given that several AMPS are widely explored for anticancer property capitalizing on higher negative charge of cancer cell membrane, we determined whether ABD-AMP conjugate formulation could be utilized in the cancer context. Cell toxicity assay of (ABD)2-(EEG)6-S12-(D)Pex was performed on human hepatocellular carcinoma cell line HepG2 (FIG. 6C).
# [2] = In vivo toxicity evaluation after intravenous treatment; conditions: for H&E staining of kidney sections, pathological features / H&E staining of spleen sections, pathological features / serum alanine aminotransferase (ALT) level / serum aspartate aminotransferase (AST) level / serum blood nitrogen urea (BUN) level: 10 mg/kg AMP equivalent dose
# Source text: FIG. 5. In vivo toxicity evaluation of a model ABD-AMP conjugate. (A) Treatment groups and their body conditions. (B) Serum chemistry analysis of ALT, AST, and BUN. (C) H&E staining of spleen and kidneys sections. Arrows indicate protein casts or apoptotic bodies.
# Given a favorable biodistribution profile of ABD-AMP conjugate, we next evaluated if our conjugate could improve safety profile of AMP. We performed toxicity evaluation in mice following intravenous treatments with free AMP (D)Pex or conjugate (ABD)2-(EEG)6-S12-(D)Pex at 5 and 10 mg/kg AMP equivalent doses (FIG. 5A). […] In the spleens of the (D)Pex-treated mice, patches of apoptotic lymphocytes were observed. These pathological features were not observed in mice treated with the conjugate at the equivalent AMP dose. Altogether, our conjugate formulation effectively improves safety profile of AMP following systemic administration.
# [3] = Source text: FIG. 4. In vivo pharmacokinetic and biodistribution evaluations of a model ABD-AMP conjugate. […] (B) Pharmacokinetics of ABD-AMP-Cy7 conjugate and a free AMP-Cy7 control. (C) Experimental timeline for time-lapse biodistribution and conjugate activation evaluation in a PAO1 lung infection model. Quantification of intact and active AMP contents in (D) lungs, (E) kidneys, (F) liver, and (G) spleen at different time points. […] (I) Estimated fold change at equivalent lung exposure of active AMP content.
# To study time-lapse biodistribution and conjugate activation in an infection context, we first infected mice with PAO1 via intratracheal instillation (IT) (FIG. 4C). The conjugate or free AMP control were intravenously (IV) administered 6 h post infection. The mice were euthanized at different time points, and organs were harvested and homogenized for quantification of conjugate and released AMP contents via SDS-PAGE analysis. […] Alternatively, when estimating at the equivalent lung exposure of active AMP, our conjugate reduced exposure of active AMP to kidneys, liver, and spleen by 3.1, 9.3, and 4.2 fold, respectively (FIG. 4I).
# mouse red blood cells = conditions: intact conjugate
# Source text: as §1, §3
# L929 fibroblasts = conditions: intact conjugate; MTS
# Source text: as §1, §3
# [4] = tested on: human hepatocellular carcinoma cell line HepG2; assay: Cell toxicity (MTS) assay on HepG2, anticancer activity masking; format: cell-based
# Source text: as §2
# To ensure broad application across different therapeutic peptides, we formulated additional AMPS (POL7080 and colistin) into ABD-AMP conjugates and evaluated the extent of activity masking. A 64-fold activity masking was similarly observed for both peptides in term of antibacterial activity on PAO1 (FIGS. 6A and B) confirming robust activity masking of AMPS across diverse secondary structures. Given that several AMPS are widely explored for anticancer property capitalizing on higher negative charge of cancer cell membrane, we determined whether ABD-AMP conjugate formulation could be utilized in the cancer context. Cell toxicity assay of (ABD)2-(EEG)6-S12-(D)Pex was performed on human hepatocellular carcinoma cell line HepG2 (FIG. 6C). […] Altogether, ABD-AMP conjugate platform represents a generalizable platform for formulating diverse activatable therapeutic peptides for different disease applications with aberrant protease microenvironment such as microbial infection and cancer.
molecule,measurement,setting,value
Cyclo-(T-W-I-(Dab)-(Orn)-(Dab)-(Dab)-W-(Dab)-(Dab)-A-S-p-P) (SEQ ID NO: 88) [POL7080],fold activity masking in term of antibacterial activity on PAO1,[1],64 fold
"CC[C@@H](C)[C@@H](NC(=O)CN)C(=O)NCC(=O)N[C@H](CCCCN)C(=O)N[C@H](Cc1ccccc1)C(=O)N[C@H](CC(C)C)C(=O)N[C@H](CCCCN)C(=O)N[C@H](CCCCN)C(=O)N[C@H](C)C(=O)N[C@H](CCCCN)C(=O)N[C@H](CCCCN)C(=O)N[C@H](Cc1ccccc1)C(=O)NCC(=O)N[C@H](CCCCN)C(=O)N[C@H](C)C(=O)N[C@H](Cc1ccccc1)C(=O)N[C@@H](C(=O)N[C@H](CCCCN)C(=O)N[C@@H](C(=O)N[C@H](CC(C)C)C(=O)N[C@H](CCCCN)C(=O)N[C@H](CCCCN)C(N)=O)[C@H](C)CC)C(C)C [(D)Pex, GiGkflkkakkfGkafvkilkk-CONH2 (SEQ ID NO: 74)]",mice that did not survive to the end point,"[2]; 10 mg/kg, 24 h end point",3 out of 5
same,"H&E staining of kidney sections, pathological features",[2]; mice,significant damage
same,"H&E staining of spleen sections, pathological features",[2]; mice,significant damage
same,serum alanine aminotransferase (ALT) level,[2]; mice,exceeding the reference range
same,serum aspartate aminotransferase (AST) level,[2]; mice,exceeding the reference range
same,serum blood nitrogen urea (BUN) level,[2]; mice,exceeding the reference range
same,body condition (signs of distress),"[2]; mice, 10 mg/kg, observed 24 h",evident signs of distress
6-methyloctanoic acid-Dab-Thr-Dab-(Dab-Dab-(D-Leu)-Leu-Dab-Dab-Thr) (SEQ ID NO: 84) [colistin],fold activity masking in term of antibacterial activity on PAO1,[1],64 fold
B1,"fold increase in area-under-the-concentration-time curve (AUC), circulation",[3]; compared to the free (D)Pex-Cy7 control,91 fold
same,AUC fold higher active AMP delivered to the lungs,"[3]; mouse, in vivo",2.6 fold
same,"AUC fold reduction of active AMP exposure, kidneys","[3]; mouse, in vivo",1.2 fold
same,"AUC fold reduction of active AMP exposure, liver","[3]; mouse, in vivo",3.6 fold
same,"AUC fold reduction of active AMP exposure, spleen","[3]; mouse, in vivo",1.6 fold
same,"fold reduction of active AMP exposure, kidneys, at equivalent lung exposure","[3]; mouse, in vivo",3.1 fold
same,"fold reduction of active AMP exposure, liver, at equivalent lung exposure","[3]; mouse, in vivo",9.3 fold
same,"fold reduction of active AMP exposure, spleen, at equivalent lung exposure","[3]; mouse, in vivo",4.2 fold
B2,masking of hemolysis,mouse red blood cells,effectively mask
same,masking of mammalian toxicity on L929 fibroblasts,L929 fibroblasts,effectively mask
same,"H&E staining of kidney sections, pathological features",[2]; mice,not observed
same,"H&E staining of spleen sections, pathological features",[2]; mice,not observed
same,serum alanine aminotransferase (ALT) level,[2]; mice,within the normal reference range
same,serum aspartate aminotransferase (AST) level,[2]; mice,within the normal reference range
same,serum blood nitrogen urea (BUN) level,[2]; mice,within the normal reference range
same,tolerability / body condition,"[2]; mice, 5 and 10 mg/kg AMP equivalent doses, observed 24 h",well tolerated up to the highest dose tested with no signs of distress
same,"cell toxicity on HepG2, after activation by target protease (Thrombin)",[4]; thrombin pre-cleaved,restored
same,"cell toxicity on HepG2, intact conjugate",[4]; without protease activation,natively inactive
same,fold higher minimum inhibitory concentration (MIC) of intact conjugate,"[1]; intact conjugate versus thrombin pre-activated, PAO1, MIC = lowest treatment concentration that fully inhibits bacteria growth",64 fold
